From patent US20260347399A1, “BRAIN PENETRATING PEPTIDES AND METHODS OF USE” (priority 2022, published 2026)
Ends that are not written are not given here.

Key:
WT-GBM = assay: Peptide-phage homing in glioma-bearing mice; assay type: in vivo, mouse; conditions: peptide-phage i.v., 1 h
Source text: (§1) Animal experimentation procedures were approved by the Estonian Ministry of Agriculture, Committee of Animal Experimentation, Project #48 and #159. Balb/c mice and Athymic nude mice (HD) were housed in a pathogen-free environment at the Animal Facility of the Institute of Biomedicine and Translational Medicine, University of Tartu (Tartu, Estonia). For induction of orthotopic GBM xenografts in nude mice, 7×10^5 (WT-GBM, VEGFko GBM) cells were implanted intracranially in the right striatum of the brain (ccordinates: 2 mm laterally and 2 mm posteriorly from bregma and at 2.5 mm depth). Intracranial tumors developed for 6-7 days (WT-GBM) and 12-14 days (VEGFko GBM) before performing experiments.
(§2) Homing of CVGTNCY (SEQ ID NO:2) was analyzed in angiogenic WT-GBM and infiltrative VEGFko GBM models. First, CVGTNCY (SEQ ID NO:2) peptide-phage homing was evaluated based on titer after systemic injection into the glioma-bearing mice and perfusion with PBS.

VEGFko GBM = assay: Peptide-phage homing in glioma-bearing mice; assay type: in vivo, mouse; conditions: peptide-phage i.v., 1 h
Source text: as §1, §2

WT GBM cells = assay: Proximity labelling with peptide-HRP complex and mass spectrometry; assay type: cell-based, mouse; conditions: WT GBM and Neuro2A proximity labelling, mass spectrometry
Method: To assess the efficiency and specificity of proximity labelling, WT GBM cells were cultured in 24-well plates on polylysine coated glass coverslips until 80-90% confluency. Cerepep and horseradish peroxidase complex (CP-HRP) was prepared by conjugating biotinylated Cerepep to streptavidin-HRP. Control biotin-HRP complex was prepared by conjugating biotin to streptavidin-HRP. 4 μM CP-HRP or biot-HRP in DPBS was added to the cells and incubated at 37 °C for 1 h. The cells were washed with DPBS. 500 μM biotin-phenol (Iris Biotech #41994-02-9) in DPBS was added to the cells and incubated at 37 °C for 30 min. To start the reaction, H2O2 with the final concentration of 1 mM was added to the cells and incubated for 2 min at RT. The reaction was stopped by washing with 100 U/ml catalase in DPBS. Cells were fixed in 4% PFA and biotinylated proteins were detected with Streptavidin-Dylight 550 conjugate (1:500 in DPBS). Nuclei were stained with DAPI and the biotinylation of cells was analyzed with confocal microscopy.
To biotinylate the receptor of Cerepep peptide to be detected with mass spectrometry, the proximity labelling was performed on WT GBM and Neuro2A cells in suspension following the same protocol as with attached cells. […]
Biotin was detected with Streptavidin DyLight550. The WT GBM cells were analyzed with confocal microscopy. […]

LRP-1 cluster III = target: T1, LRP-1 cluster III (Homo sapiens, UniProt Q07954); assay: Bead binding assay (FACS); conditions: 10 nM LRP-1 cluster III, biotinylated peptide on beads
T1 construct: detected by anti-human antibody
Method: (§3) Briefly, 50 μl of Myone Dynabeads were washed multiple times and incubated with 100 μl of 2 mM biotinylated peptide at room temperature for 2h. Beads were washed twice with PBS, 0.01% Tween 20-DPBS, and 0.01% PBS-BSA. The beads were then incubated overnight with 10 nM LRP-1 cluster II, or LRP-1 cluster III, and Alexa Fluor 647 anti-human LRP-1 antibody (1:200) in PBS with 0.1% BSA (FIGS. 19A-19B).
(§4) The beads were washed several times and analyzed by FACS. Samples are indicated as follows: • Negative control (−ve control): beads incubated with biotin (non-peptide), LRP-1 cluster III protein, and Alexa Fluor 647 anti-human antibody; • Positive control for the cluster II expts: beads incubated with biotinylated-Angiopep2 peptide, LRP-1 cluster II protein and Alexa Fluor 647 anti-human LRP-1 antibody (see FIG. 19A); and • Positive control for cluster III expts: beads incubated with biotinylated-RPAR peptide, Neuropilin-1 b1b2 protein, (1:200) anti-neuropilin-1 antibody, (1:200) and Alexa Fluor 647 anti-rabbit antibody (see FIG. 19B).
(§5) 10,000 events per condition were analyzed. Experient was performed in three replicates per condition and t-test compared scramble sequence (SARVISRAKLARAL (SEQ ID NO:70)) with Cerepep.

LRP-1 cluster II = target: T2, LRP-1 cluster II (Homo sapiens, UniProt Q07954); assay: Bead binding assay (FACS); conditions: 10 nM LRP-1 cluster II, biotinylated peptide on beads
T2 construct: detected by anti-human LRP-1 antibody
Method: as §3, §4, §5

T1 sequence (Q07954 2522-2941 limits assumed): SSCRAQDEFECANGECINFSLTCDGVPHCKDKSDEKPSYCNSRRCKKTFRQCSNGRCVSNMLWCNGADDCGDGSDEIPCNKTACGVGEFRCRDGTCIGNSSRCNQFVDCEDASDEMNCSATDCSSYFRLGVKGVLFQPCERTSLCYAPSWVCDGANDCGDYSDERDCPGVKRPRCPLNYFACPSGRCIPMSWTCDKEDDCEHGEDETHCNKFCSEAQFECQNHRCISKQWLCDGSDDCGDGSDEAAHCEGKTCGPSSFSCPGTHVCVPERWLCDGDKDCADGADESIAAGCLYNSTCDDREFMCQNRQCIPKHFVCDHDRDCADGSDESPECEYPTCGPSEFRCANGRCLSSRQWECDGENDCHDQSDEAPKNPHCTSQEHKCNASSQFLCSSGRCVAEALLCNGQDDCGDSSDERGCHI
T2 sequence (Q07954 786-1165 limits assumed): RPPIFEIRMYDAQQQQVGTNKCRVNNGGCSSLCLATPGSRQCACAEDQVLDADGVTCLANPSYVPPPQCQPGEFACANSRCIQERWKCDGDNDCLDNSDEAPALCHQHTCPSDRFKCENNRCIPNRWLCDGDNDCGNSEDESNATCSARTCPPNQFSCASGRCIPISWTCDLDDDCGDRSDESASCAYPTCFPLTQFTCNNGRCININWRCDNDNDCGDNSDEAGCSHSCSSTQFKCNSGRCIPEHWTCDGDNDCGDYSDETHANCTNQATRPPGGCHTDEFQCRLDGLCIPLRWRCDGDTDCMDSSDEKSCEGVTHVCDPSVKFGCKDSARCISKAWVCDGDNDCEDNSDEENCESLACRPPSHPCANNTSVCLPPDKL

With CVGTNCY the “ratio of CVGTNCY over G7, normal brain vs GBM” value (WT-GBM; WT-GBM and VEGFko GBM) was “higher in the normal brain parenchyma than in GBMs”, the “accumulation in WT-GBM compared to normal brain parenchyma” value (WT-GBM) was 6 times and the “accumulation in VEGFko GBM compared to normal brain parenchyma” value (VEGFko GBM) was 2 times.
In the case of “SRRVISRAKLAAAL [Cerepep, SRRVISRAKLAAAL]”, the “most probable receptor candidate” value (WT GBM cells) is reported as “LRP1 was considered the most probable candidate”, the “interaction with LRP-1 cluster III” value (LRP-1 cluster III) is reported as “interacts with LRP-1 cluster II and cluster III” and the “interaction with LRP-1 cluster II” value (LRP-1 cluster II) is reported as “interacts with LRP-1 cluster II”.
